# According to publication PMC9776664, “Crystal structure of the feruloyl esterase from Lentilactobacillus buchneri reveals a novel homodimeric state” (Frontiers in Microbiology, 2022):
# Assays:
# [1] = molecular target: T1, LbFAE (Lentilactobacillus buchneri, UniProt D7RU28); experiment: X-ray crystal structure, […] Å, wild-type crystal soaked with FA; assay type: binding; settings: active site; crystal grown with 0.1 M sodium cacodylate pH 6.5, 0.2 M calcium acetate, PEG 8000
# T1 construct: gene faeA; synthetic gene in pNIC28-Bsa4, E. coli BL21(DE3)-T1; Ni-NTA and SEC; homodimer about 60 kDa; monomer model 260 residues; catalytic triad Ser114, Asp206, His233
# [2] = molecular target: the molecule itself; experiment: SEC; HiLoad 16/60 Superdex 200 prep grade, 20 mM Hepes pH 7.5, 150 mM NaCl, 1 ml/min, 4°C; calibrated with ferritin, aldolase, conalbumin, ribonuclease A
# [3] = substrate: COc1cc(/C=C/C(=O)Oc2ccc([N+](=O)[O-])cc2)ccc1O; experiment: spectrophotometric assay, Michaelis-Menten fit; assay type: biochemical, Lentilactobacillus buchneri; settings: pH 6.5, 40 °C, free enzyme
# Source text: spectrophotometric assay, Michaelis-Menten fit on LbFAE
# [4] = substrate: COC(=O)/C=C/c1ccc(O)c(OC)c1; experiment: HPLC of released ferulic acid, Michaelis-Menten fit; assay type: biochemical, Lentilactobacillus buchneri; settings: pH 6.5, 40 °C, free enzyme
# Source text: HPLC of released ferulic acid, Michaelis-Menten fit on LbFAE
Molecule,"X-ray crystal structure, 1.90 Å, wild-type crystal soaked with FA [1]",stoichiometry N [2],Km [3],Vmax [3],kcat [3],kcat/Km [3],Km [4],Vmax [4],kcat [4],kcat/Km [4]
"COc1cc(/C=C/C(=O)O)ccc1O [FA, 4-hydroxy-3-methoxy-cinnamic acid]","only FA (i.e., the product) resulted in a complex with LbFAE",–,–,–,–,–,–,–,–,–
"feruloyl esterase (LbFAE) from Lentilactobacillus buchneri LN 4017, wild type (enzyme, UniProt D7RU28 1-260, looked up, Feruloyl esterase annotated as type-A FAE (faeA) from L. buchneri silage additive strain LN4017 (ATCC PTA-6138); synthetic gene amplified with primers from the ATG start to the stop codon; the monomer structure includes 260 amino acids; Cloned into pNIC28-Bsa4 by LIC; Theoretical mass with His6 tag and TEV site 31.6 kDa; also called faeA; source: E. coli BL21(DE3)-T1, purified (Ni-NTA, SEC)) MIKFVTTEINGLTLRGTAHVPDGEPGQQFPTVLMFHGFGAVRDEGFRLFIQMSNRLMENGIAAVRFDFGCHGESDGEFEDFTFSQELNEGSALIDAVKSMSFVDSTKFSLLGESLGSVAASIVAGKRSTELTSLCMWSPAASFLDEILNDHTLQGKTVDNVEKDGYFDFYGLKLGKAFFDDLKNINIFDNAKKYQGPVKIVYGTNDFIPEKYSHKYMDGYENGELVIVQDGDHGWQSVPSRKRILDETMKFFRKTLLEAK",–,2,900 µM,6.9 µmol/min/mg,6.7 s⁻¹,7540 M⁻¹ s⁻¹,65 µM,6.57 µmol/min/mg,16.3 s⁻¹,252000 M⁻¹ s⁻¹
